Measured values reported in PMC9771711 (Science (New York, N.Y.), 2021).

Molecular target: CCHFV Gc^1579 (Crimean-Congo hemorrhagic fever virus, …)
Assay: BLI

B1: ADI-36121 (as used in BLI) (antibody, V domains shown)
VH: EVQLLESGGDLVQPGGSLRLSCAASGFTFSSYVMSWVRQAPGKGLEWVSVIYRGGSTKYADSVKGRFTISRDDSKNTLYLQMNSLRVEDTAVYYCVKDPKAWLEPEWWGQGTLVTVSS
VL: DIQMTQSPSSLSASVGDRVTITCRASQSISKYLSWFQQKPGKAPNLLIYAASYLQSGVPSRFSGSGSGTDFTLTISSLQPEDFATYYCQQSYSNPRTFGQGTKVEIK
binding result: binds
